Results from paper PMC11372217 (Nature Communications, 2024).

Molecular target: His-PADI4 (human, UniProt Q9UM07 1-663)
Assay: pull-down

Sequence of His-PADI4 (Q9UM07 whole entry): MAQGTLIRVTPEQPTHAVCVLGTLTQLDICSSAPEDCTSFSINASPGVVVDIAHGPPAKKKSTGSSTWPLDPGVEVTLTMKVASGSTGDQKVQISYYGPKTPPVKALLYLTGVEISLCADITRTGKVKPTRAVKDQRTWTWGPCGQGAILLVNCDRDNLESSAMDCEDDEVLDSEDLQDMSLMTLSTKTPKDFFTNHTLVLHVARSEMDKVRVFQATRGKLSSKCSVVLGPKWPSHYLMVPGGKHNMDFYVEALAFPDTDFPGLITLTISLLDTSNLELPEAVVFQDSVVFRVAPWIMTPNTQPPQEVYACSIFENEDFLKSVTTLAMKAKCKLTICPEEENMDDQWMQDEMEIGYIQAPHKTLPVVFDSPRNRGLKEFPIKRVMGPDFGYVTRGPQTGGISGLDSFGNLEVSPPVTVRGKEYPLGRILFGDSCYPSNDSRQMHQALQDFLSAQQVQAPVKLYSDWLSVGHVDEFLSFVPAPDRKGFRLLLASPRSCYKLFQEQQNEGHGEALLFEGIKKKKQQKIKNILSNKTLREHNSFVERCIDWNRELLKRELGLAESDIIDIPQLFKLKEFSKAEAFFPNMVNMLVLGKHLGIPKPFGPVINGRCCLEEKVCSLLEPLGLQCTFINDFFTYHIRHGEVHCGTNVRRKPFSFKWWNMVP

binding result: binds
B1: GST-HIF-1α (575-786) (domain or fragment, human, UniProt Q16665 575-786, looked up)
chain: RSFDQLSPLESSSASPESASPQSTVTVFQQTQIQEPTANATTTTATTDELKTVTKDRMEDIKILIASPSPTHIHKETTSATSSPYRDTQSRTASPNRAGKGVIEQTEKSHPRSPNVLSVALSQRTTVPEEELNPKILALQNAQRKRKMEHDGSLFQAVGIGTLLQQPDDHAATTSLSWKRVKGCKSSEQNGMEQKTIILIPSDLACRLLGQS
